From the RNAGym collection of RNA variant scans (doi:10.1101/gr.219683.116)

B1: mRNA-splicing (parent)
chain: AGUUGCUGCUGGGAGCUCCAGCACAGUGAAAUGGACAGAAGGGCAGAGCAA

Variants of: B1
Assay: exon inclusion enrichment index; higher = more inclusion; WT1 exon 5 minigene, HEK293

First: G5C C6U G8C C9U U10C C19G A20U
Second: G5C C6U G8C C9U U10C A35C
The “exon inclusion enrichment index” value of the first is higher: 1.72 for the first, 0.541 for the second.

First: G5C C6U G8C C9U U10C A35G
Second: G5C C6U G8C C9U U10C A35U
The “exon inclusion enrichment index” value of the first is higher: 0.766 for the first, 0.452 for the second.

Going from G5C C6U G8C C9U U10C A45G G46A to G5C C6U G8C C9U U10C A45G G46C, the “exon inclusion enrichment index” value falls from 3.98 to 2.3.

Going from G5C C6U G8C C9U U10C A45G G46U to G5C C6U G8C C9U U10C C44U A45C, the “exon inclusion enrichment index” value rises from 1.68 to 2.63.

Going from G5C C6U G8C C9U U10C C44U A45U to G5C C6U G8C C9U U10C C44U A45G, the “exon inclusion enrichment index” value falls from 1.28 to 1.03.

Compared with G5C C6U G8C C9U U10C G42A G43C, G5C C6U G8C C9U U10C G42A G43U is lower in “exon inclusion enrichment index” value: 4.2 for the first, 3.86 for the second.

First: G5C C6U G8C C9U U10C G42A G43A
Second: G5C C6U G8C C9U U10C G41A G42A
The “exon inclusion enrichment index” value of the first is higher: 4.1 for the first, 1.54 for the second.

Compared with G5C C6U G8C C9U U10C G41A G42C, G5C C6U G8C C9U U10C G41A G42U is lower in “exon inclusion enrichment index” value: 2.67 for the first, 1.71 for the second.

Going from G5C C6U G8C C9U U10C G15C C16A to G5C C6U G8C C9U U10C G15C C16G, the “exon inclusion enrichment index” value rises from 1.75 to 2.09.

First: G5C C6U G8C C9U U10C G15C C16U
Second: G5C C6U G8C C9U U10C C44G A45G
The “exon inclusion enrichment index” value of the first is higher: 1.9 for the first, 0.398 for the second.

Going from G5C C6U G8C C9U U10C C44G A45U to G5C C6U G8C C9U U10C C44G A45C, the “exon inclusion enrichment index” value rises from 1.26 to 3.14.

Going from G5C C6U G8C C9U U10C A39G A40G to G5C C6U G8C C9U U10C A39G A40U, the “exon inclusion enrichment index” value rises from 0.186 to 0.232.

First: G5C C6U G8C C9U U10C A39G A40C
Second: G5C C6U G8C C9U U10C G34A
The “exon inclusion enrichment index” value of the first is higher: 1.79 for the first, 1.17 for the second.

Going from G5C C6U G8C C9U U10C G34C to G5C C6U G8C C9U U10C G34U, the “exon inclusion enrichment index” value falls from 0.84 to 0.391.

Compared with G5C C6U G8C C9U U10C C16G U17G, G5C C6U G8C C9U U10C C16G U17A is higher in “exon inclusion enrichment index” value: 0.254 for the first, 2.4 for the second.

First: G5C C6U G8C C9U U10C C16G U17C
Second: G5C C6U G8C C9U U10C A45C G46U
The “exon inclusion enrichment index” value of the first is higher: 1.12 for the first, 0.726 for the second.

First: G5C C6U G8C C9U U10C A45C G46C
Second: G5C C6U G8C C9U U10C A45C G46A
The “exon inclusion enrichment index” value of the first is higher: 1.22 for the first, 1.12 for the second.

Going from G5C C6U G8C C9U U10C C19U A20C to G5C C6U G8C C9U U10C C19U A20U, the “exon inclusion enrichment index” value falls from 0.957 to 0.25.

Compared with G5C C6U G8C C9U U10C C19U A20G, G5C C6U G8C C9U U10C C44A A45G is higher in “exon inclusion enrichment index” value: 0.343 for the first, 2.98 for the second.

Going from G5C C6U G8C C9U U10C C44A A45C to G5C C6U G8C C9U U10C C44A A45U, the “exon inclusion enrichment index” value rises from 3.61 to 4.04.

Compared with G5C C6U G8C C9U U10C G34A A35U, G5C C6U G8C C9U U10C G34A A35G is higher in “exon inclusion enrichment index” value: 0.568 for the first, 0.76 for the second.

Going from G5C C6U G8C C9U U10C G34A A35C to G5C C6U G8C C9U U10C C16U U17G, the “exon inclusion enrichment index” value falls from 1.47 to 0.905.

First: G5C C6U G8C C9U U10C C16U U17C
Second: G5C C6U G8C C9U U10C C16U U17A
The “exon inclusion enrichment index” value of the first is lower: 1.08 for the first, 1.65 for the second.

First: G5C C6U G8C C9U U10C G13U A14U
Second: G5C C6U G8C C9U U10C G13U A14G
The “exon inclusion enrichment index” value of the first is higher: 0.592 for the first, 0.52 for the second.

First: G5C C6U G8C C9U U10C G13U A14C
Second: G5C C6U G8C C9U U10C G46A A47U
The “exon inclusion enrichment index” value of the first is lower: 0.936 for the first, 2.29 for the second.

Going from G5C C6U G8C C9U U10C G46A A47C to G5C C6U G8C C9U U10C G46A A47G, the “exon inclusion enrichment index” value falls from 2.56 to 0.717.

Going from G5C C6U G8C C9U U10C G43A C44U to G5C C6U G8C C9U U10C G43A C44A, the “exon inclusion enrichment index” value rises from 2 to 3.42.

Going from G5C C6U G8C C9U U10C G43A C44G to G5C C6U G8C C9U U10C G11U G12A, the “exon inclusion enrichment index” value falls from 3.59 to 0.0218.

Compared with G5C C6U G8C C9U U10C G11U G12C, G5C C6U G8C C9U U10C G11U G12U is lower in “exon inclusion enrichment index” value: 0.558 for the first, 0.188 for the second.

Compared with G5C C6U G8C C9U U10C G43C C44U, G5C C6U G8C C9U U10C G43C C44G is higher in “exon inclusion enrichment index” value: 1.6 for the first, 4.6 for the second.

First: G5C C6U G8C C9U U10C G43C C44A
Second: G5C C6U G8C C9U U10C G38A A39G
The “exon inclusion enrichment index” value of the first is higher: 3.17 for the first, 1.85 for the second.

First: G5C C6U G8C C9U U10C G38A A39U
Second: G5C C6U G8C C9U U10C G38A A39C
The “exon inclusion enrichment index” value of the first is lower: 0.134 for the first, 1.48 for the second.

Compared with G5C C6U G8C C9U U10C G41U G42A, G5C C6U G8C C9U U10C G41U G42C is higher in “exon inclusion enrichment index” value: 0.727 for the first, 2.93 for the second.

First: G5C C6U G8C C9U U10C G41U G42U
Second: G5C C6U G8C C9U U10C G46C A47C
The “exon inclusion enrichment index” value of the first is lower: 1.74 for the first, 1.76 for the second.

First: G5C C6U G8C C9U U10C G34U A35G
Second: G5C C6U G8C C9U U10C G34U A35C
The “exon inclusion enrichment index” value of the first is lower: 0.537 for the first, 0.683 for the second.

Compared with G5C C6U G8C C9U U10C G34U A35U, G5C C6U G8C C9U U10C G38U A39C is higher in “exon inclusion enrichment index” value: 0.377 for the first, 1.39 for the second.

Compared with G5C C6U G8C C9U U10C G38U A39G, G5C C6U G8C C9U U10C G38U A39U is lower in “exon inclusion enrichment index” value: 0.734 for the first, 0.0819 for the second.

Going from G5C C6U G8C C9U U10C C36A A37U to G5C C6U G8C C9U U10C C36A A37C, the “exon inclusion enrichment index” value rises from 0.939 to 2.33.

Going from G5C C6U G8C C9U U10C C36A A37G to G5C C6U G8C C9U U10C A39C A40G, the “exon inclusion enrichment index” value rises from 0.805 to 2.03.

Compared with G5C C6U G8C C9U U10C A39C A40U, G5C C6U G8C C9U U10C A39C A40C is higher in “exon inclusion enrichment index” value: 1.13 for the first, 2.43 for the second.

Going from G5C C6U G8C C9U U10C A35G C36U to G5C C6U G8C C9U U10C A35G C36G, the “exon inclusion enrichment index” value rises from 0.016 to 0.14.

With G5C C6U G8C C9U U10C A35G C36A the “exon inclusion enrichment index” value was 1.07.
